The values that follow come from patent US20250188176A1.

Changes are numbered by the printed parent chain.

This assay addresses canine IL-4RA (construct not given) (canine). Briefly: SPR, IL-4RA immobilised, periplasmic Fab.

B1: FJ2246MP07H09 (Fab, V domains shown)
VH: EVQLVESGGDLVKPGGSLRLSCVASGFTFRDYAMTWVRQAPGKGLQWVSLINGSGGKTYYADAVKGRFTISRDNAKNTLYLQMNSLRAEDTAVYYCAVDRLTKTIRPQYYGLWSWGQGTLVTVSS
VL: DIVMTQTPLSLSVSPGETASISCRSSQSLLYSIGYNYLDWYLQKPGQSPQGLIYLGSKRASGVPDRFSGSGSGTDFTLRISRVEANDTGVYYCMQGLQSPLTFGQGTKLEIKR
For B1, the Improvement over parental worked out at 5.4 fold, the RU max came out at 509 RU and the off-rate (koff) was determined as 5.23e-05 s⁻¹.

B2: FJ2246MP06A09 (Fab, V domains shown)
VH: B1 VH with S54N, G56S, S114V
VL: B1 VL
As to B2, the Improvement over parental stood at 2.6 fold, the RU max worked out at 152 RU and the off-rate (koff) came out at 0.000106 s⁻¹.

B3: FJ2246MP10G07 (Fab, V domains shown)
VH: B1 VH with N52S, S114V
VL: DIVMTQTPLSLSVSPGETASISCRSSQSLLYSIGYNYLDWYLQKPGQSPQGLIYLGSKRASGVPDRFSGSGSGTDFTLRISRVEADDTGVYYCMQGLHSPLTFGQGTKLEIK
For B3, the Improvement over parental worked out at 2.5 fold, the RU max came out at 372 RU and the koff stood at 0.000111 s⁻¹.

B4: FJ2246MP06E01 (Fab, V domains shown)
VH: B1 VH with S114V
VL: B1 VL
Turning to B4, the Improvement over parental came to 2.4 fold, the RU max is 152 RU and the koff was 0.000119 s⁻¹.

B5: FJ2246MP10B07 (Fab, V domains shown)
VH: B1 VH with N52S, S114V
VL: B3 VL with D86E
Turning to B5, the Improvement over parental is 2.2 fold, the RU max was 252 RU and the dissociation rate constant (koff) was 0.000125 s⁻¹.

B6: FJ2246MP06D11 (Fab, V domains shown)
VH: B1 VH with S114V
VL: B1 VL
In the case of B6, the Improvement over parental is 2.1 fold, the RU max turned out to be 146 RU and the koff was 0.000132 s⁻¹.

B7: FJ2246MP06C01 (Fab, V domains shown)
VH: B1 VH with S54N, S114V
VL: B1 VL
For the molecule B7, the Improvement over parental came to 2.3 fold, the RU max turned out to be 160 RU and the koff turned out to be 0.000122 s⁻¹.

B8: FJ2246MP05A03 (Fab, V domains shown)
VH: B1 VH with F27L, T28P, T35A, N52S, S114V
VL: B1 VL
For the molecule B8, the Improvement over parental is 2.3 fold, the RU max came out at 400 RU and the dissociation rate constant (koff) was determined as 0.000124 s⁻¹.

B9: FJ2246MP06D12 (Fab, V domains shown)
VH: B1 VH with S54N, G55S, S114V
VL: B1 VL
As to B9, the Improvement over parental was determined as 2.7 fold, the RU max amounted to 154 RU and the koff was 0.000102 s⁻¹.

B10: FJ2246MP06H01 (Fab, V domains shown)
VH: B1 VH with S54D, G55A, G56S, S114V
VL: B1 VL
As to B10, the Improvement over parental is 2.6 fold, the RU max is 225 RU and the dissociation rate constant (koff) came out at 0.000106 s⁻¹.

B11: FJ2246MP10F04 (Fab, V domains shown)
VH: B1 VH with N52S, S114V
VL: B3 VL with Q27K
Take B11: the Improvement over parental was 3.1 fold, the RU max stood at 292 RU and the dissociation rate constant (koff) is 9.16e-05 s⁻¹.

B12: FJ2246MP10B12 (Fab, V domains shown)
VH: B1 VH with N52S, S114V
VL: B3 VL with S72N, D86E, T102S
As for B12, the Improvement over parental was 3 fold, the RU max was 304 RU and the off-rate constant (koff) came to 9.41e-05 s⁻¹.

B13: FJ2246MP10H11 (Fab, V domains shown)
VH: B1 VH with N52S, S114V
VL: B3 VL with D86N, T102S
For B13, the Improvement over parental was determined as 2.8 fold, the RU max turned out to be 261 RU and the koff came to 9.9e-05 s⁻¹.

B14: FJ2246MP06F01 (Fab, V domains shown)
VH: B1 VH with G56T, S114V
VL: B1 VL
As for B14, the Improvement over parental turned out to be 2.5 fold, the RU max is 199 RU and the koff was 0.000112 s⁻¹.

B15: FJ2246MP07A09 (Fab, V domains shown)
VH: B1 VH with L112M
VL: B1 VL
Regarding B15, the Improvement over parental stood at 4.2 fold, the RU max was found to be 252 RU and the koff came out at 6.73e-05 s⁻¹.

B16: FJ2246MP10H03 (Fab, V domains shown)
VH: B1 VH with N52S, S114V
VL: B3 VL with D86E, H98R, T102S
As for B16, the Improvement over parental came to 2.2 fold, the RU max is 243 RU and the koff is 0.000126 s⁻¹.

B17: FJ2246MP06H07 (Fab, V domains shown)
VH: B1 VH with S54T, S114A
VL: B1 VL
Regarding B17, the Improvement over parental stood at 3.7 fold, the RU max was determined as 568 RU and the koff is 7.5e-05 s⁻¹.

B18: FJ2246MP06D01 (Fab, V domains shown)
VH: B1 VH with T28P, I51V, G56S, S114V
VL: B1 VL
With B18, the Improvement over parental came to 3.6 fold, the RU max worked out at 323 RU and the koff worked out at 7.72e-05 s⁻¹.

B19: FJ2246MP10B02 (Fab, V domains shown)
VH: B1 VH with N52S, S114V
VL: B3 VL with D86N
With B19, the Improvement over parental was found to be 2.2 fold, the RU max worked out at 202 RU and the dissociation rate constant (koff) was found to be 0.000127 s⁻¹.

B20: FJ2246MP05F12 (Fab, V domains shown)
VH: B1 VH with T28P, S114V
VL: B1 VL
As to B20, the Improvement over parental came to 3.2 fold, the RU max turned out to be 208 RU and the koff came out at 8.83e-05 s⁻¹.

B21: FJ2246MP06C10 (Fab, V domains shown)
VH: B1 VH with S114V
VL: B1 VL
For the molecule B21, the Improvement over parental came to 2.1 fold, the RU max was 135 RU and the koff was 0.000133 s⁻¹.

B22: FJ2246MP06G08 (Fab, V domains shown)
VH: B1 VH with S54N, G56S, S114V
VL: B1 VL
Take B22: the Improvement over parental was 3.1 fold, the RU max came out at 199 RU and the koff came out at 9.01e-05 s⁻¹.

B23: FJ2246MP10A09 (Fab, V domains shown)
VH: B1 VH with N52S, S114V
VL: B3 VL with D86E, T102S
For B23, the Improvement over parental came out at 3.1 fold, the RU max was found to be 437 RU and the dissociation rate constant (koff) is 8.91e-05 s⁻¹.

B24: FJ2246MP06E12 (Fab, V domains shown)
VH: B1 VH with S54N, S114V
VL: B1 VL
Take B24: the Improvement over parental stood at 2.9 fold, the RU max came out at 127 RU and the koff turned out to be 9.66e-05 s⁻¹.

B25: FJ2246MP07A10 (Fab, V domains shown)
VH: B1 VH with I105V
VL: B1 VL
As for B25, the Improvement over parental was 3.4 fold, the RU max worked out at 614 RU and the off-rate constant (koff) was determined as 8.18e-05 s⁻¹.

B26: FJ2246MP06C02 (Fab, V domains shown)
VH: B1 VH with S54D, G56S, T58V, S114V
VL: B1 VL
For the molecule B26, the Improvement over parental came to 2.2 fold, the RU max is 272 RU and the koff turned out to be 0.000126 s⁻¹.

B27: FJ2246MP10A10 (Fab, V domains shown)
VH: B1 VH with N52S, S114V
VL: B3 VL with D86E
For B27, the Improvement over parental turned out to be 2.2 fold, the RU max came to 369 RU and the koff was 0.000126 s⁻¹.

The koff is the first-order rate constant of dissociation. A lower koff goes with a long-lived complex.
